Experimental data reported in US20120316071A1.
“And” between values parts separate entries of the source, which are not always exact repeats. Identical values can stand only once. Values belong to the substance of their own block, whether it stands above or below them.

Columns and labels:
[1] = target: rHuman P-Cadherin/Fc Chimera, CF (R&D Systems Cat#861-PC) (human) (UniProt P22223); assay: MSD ECL multispot assay, antigen spotted on plate, Fab in solution; blank spot of this row 504
[2] = target: rHuman P-Cadherin/Fc Chimera, CF (R&D Systems Cat#861-PC) (human) (UniProt P22223); assay: MSD ECL multispot assay, antigen spotted on plate, Fab in solution; blank spot of this row 348
[3] = target: rHuman P-Cadherin/Fc Chimera, CF (R&D Systems Cat#861-PC) (human) (UniProt P22223); assay: MSD multispot ECL, antigen spotted, Fab 9.3 nM; blank spot 287
[4] = target: rHuman P-Cadherin/Fc Chimera, CF (R&D Systems Cat#861-PC) (human) (UniProt P22223); assay: MSD multispot ECL, antigen spotted, Fab 148.9 nM; blank spot 218
[5] = target: rHuman P-Cadherin/Fc Chimera, CF (R&D Systems Cat#861-PC) (human) (UniProt P22223); assay: MSD multispot ECL, antigen spotted, Fab 37.2 nM; blank spot 199
[6] = target: rHuman P-Cadherin/Fc Chimera, CF (R&D Systems Cat#861-PC) (human) (UniProt P22223); assay: MSD multispot ECL, antigen spotted, Fab 0.6 nM; blank spot 226
[7] = target: rHuman P-Cadherin/Fc Chimera, CF (R&D Systems Cat#861-PC) (human) (UniProt P22223); assay: MSD multispot ECL, antigen spotted, Fab 595.8 nM; blank spot 285
[8] = target: rHuman P-Cadherin/Fc Chimera, CF (R&D Systems Cat#861-PC) (human) (UniProt P22223); assay: MSD multispot ECL, antigen spotted, Fab 2383 nM; blank spot 344
[9] = target: rHuman P-Cadherin/Fc Chimera, CF (R&D Systems Cat#861-PC) (human) (UniProt P22223); assay: MSD multispot ECL, antigen spotted, Fab […]; blank spot 234
[10] = target: rHuman P-Cadherin/Fc Chimera, CF (R&D Systems Cat#861-PC) (human) (UniProt P22223); assay: MSD multispot ECL, antigen spotted, Fab 0.1 nM; blank spot 201
[11] = target: Recombinant Human DLL4 (human) (UniProt Q9NR61); assay: ECL (MSD) multispot binding assay, DLL4 spotted on plate, Fab in solution
[12] = target: Recombinant Human DLL4 (human) (UniProt Q9NR61); assay: ECL (MSD) multispot binding assay, DLL4 signal over blank spot
[13] = target: Recombinant Human DLL4 (delta-like protein 4) (human) (UniProt Q9NR61); assay: ECL multispot (MSD) binding assay; antigen spotted on plate, Fab in solution
[14] = target: rHuman P-Cadherin/Fc Chimera, CF (R&D Systems Cat#861-PC) (human) (UniProt P22223); assay: MSD multispot ECL, antigen spotted on plate, Fab at 154 nM (blank spot 447)
[15] = target: rHuman Notch-1/Fc Chimera, CF (R&D Systems Cat#3647-TK) (human) (UniProt P46531); assay: as above
[16] = target: rHuman ErbB2/Fc Chimera, CF (R&D Systems Cat#1129-ER) (human) (UniProt P04626); assay: as above
[17] = target: rHuman EGF R/Fc Chimera, CF (R&D Systems Cat#344-ER) (human) (UniProt P00533); assay: as above
[18] = target: rHuman Erythropoietin R/Fc Chimera, CF (R&D Systems Cat#963-ER) (human) (UniProt P19235); assay: as above
[19] = target: rHuman CD44/Fc Chimera, CF (R&D Systems Cat#3660-CD) (human) (UniProt P16070); assay: as above
[20] = target: rHuman HGF R/c-MET/Fc Chimera, CF (R&D Systems Cat#358-MT/CF) (human) (UniProt P08581); assay: as above
[21] = target: rHuman IGF-1 sR, CF (R&D Systems Cat#391-GR) (human) (UniProt P08069); assay: as above
[22] = target: rHuman P-Cadherin/Fc Chimera, CF (R&D Systems Cat#861-PC) (human) (UniProt P22223); assay: MSD multispot ECL, antigen spotted on plate, Fab at 51 nM (blank spot 335)
[23] = target: rHuman Notch-1/Fc Chimera, CF (R&D Systems Cat#3647-TK) (human) (UniProt P46531); assay: as above
[24] = target: rHuman ErbB2/Fc Chimera, CF (R&D Systems Cat#1129-ER) (human) (UniProt P04626); assay: as above
[25] = target: rHuman EGF R/Fc Chimera, CF (R&D Systems Cat#344-ER) (human) (UniProt P00533); assay: as above
[26] = target: rHuman Erythropoietin R/Fc Chimera, CF (R&D Systems Cat#963-ER) (human) (UniProt P19235); assay: as above
[27] = target: rHuman CD44/Fc Chimera, CF (R&D Systems Cat#3660-CD) (human) (UniProt P16070); assay: as above
[28] = target: rHuman HGF R/c-MET/Fc Chimera, CF (R&D Systems Cat#358-MT/CF) (human) (UniProt P08581); assay: as above
[29] = target: rHuman IGF-1 sR, CF (R&D Systems Cat#391-GR) (human) (UniProt P08069); assay: as above
[30] = target: rHuman P-Cadherin/Fc Chimera, CF (R&D Systems Cat#861-PC) (human) (UniProt P22223); assay: MSD multispot ECL, antigen spotted on plate, Fab at 6 nM (blank spot 191)
[31] = target: rHuman Notch-1/Fc Chimera, CF (R&D Systems Cat#3647-TK) (human) (UniProt P46531); assay: as above
[32] = target: rHuman ErbB2/Fc Chimera, CF (R&D Systems Cat#1129-ER) (human) (UniProt P04626); assay: as above
[33] = target: rHuman EGF R/Fc Chimera, CF (R&D Systems Cat#344-ER) (human) (UniProt P00533); assay: as above
[34] = target: rHuman Erythropoietin R/Fc Chimera, CF (R&D Systems Cat#963-ER) (human) (UniProt P19235); assay: as above
[35] = target: rHuman CD44/Fc Chimera, CF (R&D Systems Cat#3660-CD) (human) (UniProt P16070); assay: as above
[36] = target: rHuman HGF R/c-MET/Fc Chimera, CF (R&D Systems Cat#358-MT/CF) (human) (UniProt P08581); assay: as above
[37] = target: rHuman IGF-1 sR, CF (R&D Systems Cat#391-GR) (human) (UniProt P08069); assay: as above
[38] = target: rHuman P-Cadherin/Fc Chimera, CF (R&D Systems Cat#861-PC) (human) (UniProt P22223); assay: MSD multispot ECL, antigen spotted on plate, Fab at 17 nM (blank spot 143)
[39] = target: rHuman Notch-1/Fc Chimera, CF (R&D Systems Cat#3647-TK) (human) (UniProt P46531); assay: as above
[40] = target: rHuman ErbB2/Fc Chimera, CF (R&D Systems Cat#1129-ER) (human) (UniProt P04626); assay: as above
[41] = target: rHuman EGF R/Fc Chimera, CF (R&D Systems Cat#344-ER) (human) (UniProt P00533); assay: as above
[42] = target: rHuman Erythropoietin R/Fc Chimera, CF (R&D Systems Cat#963-ER) (human) (UniProt P19235); assay: as above
[43] = target: rHuman CD44/Fc Chimera, CF (R&D Systems Cat#3660-CD) (human) (UniProt P16070); assay: as above
[44] = target: rHuman HGF R/c-MET/Fc Chimera, CF (R&D Systems Cat#358-MT/CF) (human) (UniProt P08581); assay: as above
[45] = target: rHuman IGF-1 sR, CF (R&D Systems Cat#391-GR) (human) (UniProt P08069); assay: as above

Chain of rHuman HGF R/c-MET/Fc Chimera, CF (R&D Systems Cat#358-MT/CF) (human) (P08581 25-932, change not shown): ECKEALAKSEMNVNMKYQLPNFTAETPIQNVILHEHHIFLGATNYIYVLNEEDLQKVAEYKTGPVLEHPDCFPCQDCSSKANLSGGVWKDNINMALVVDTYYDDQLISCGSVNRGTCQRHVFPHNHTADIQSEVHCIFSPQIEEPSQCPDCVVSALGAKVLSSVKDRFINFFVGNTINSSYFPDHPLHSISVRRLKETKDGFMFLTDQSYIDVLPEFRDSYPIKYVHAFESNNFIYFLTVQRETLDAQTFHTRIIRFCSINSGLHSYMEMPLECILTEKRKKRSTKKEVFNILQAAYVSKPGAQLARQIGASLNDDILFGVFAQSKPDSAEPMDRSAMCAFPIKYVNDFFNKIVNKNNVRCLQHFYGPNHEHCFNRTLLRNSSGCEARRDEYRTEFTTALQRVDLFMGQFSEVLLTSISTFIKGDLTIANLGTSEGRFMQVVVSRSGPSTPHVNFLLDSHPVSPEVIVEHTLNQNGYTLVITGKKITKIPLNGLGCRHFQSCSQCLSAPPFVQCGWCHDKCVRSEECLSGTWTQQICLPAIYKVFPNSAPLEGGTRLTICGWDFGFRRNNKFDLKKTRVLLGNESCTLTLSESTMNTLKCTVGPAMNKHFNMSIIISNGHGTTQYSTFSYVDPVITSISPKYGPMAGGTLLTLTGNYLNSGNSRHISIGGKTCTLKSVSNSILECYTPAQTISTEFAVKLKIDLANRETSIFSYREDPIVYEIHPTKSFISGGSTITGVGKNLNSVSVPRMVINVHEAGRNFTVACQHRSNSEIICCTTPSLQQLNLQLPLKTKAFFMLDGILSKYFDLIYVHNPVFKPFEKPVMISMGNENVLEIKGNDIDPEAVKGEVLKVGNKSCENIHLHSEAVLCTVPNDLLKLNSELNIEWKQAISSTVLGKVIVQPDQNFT
Chain of rHuman Erythropoietin R/Fc Chimera, CF (R&D Systems Cat#963-ER) (human) (P19235 25-250, change not shown): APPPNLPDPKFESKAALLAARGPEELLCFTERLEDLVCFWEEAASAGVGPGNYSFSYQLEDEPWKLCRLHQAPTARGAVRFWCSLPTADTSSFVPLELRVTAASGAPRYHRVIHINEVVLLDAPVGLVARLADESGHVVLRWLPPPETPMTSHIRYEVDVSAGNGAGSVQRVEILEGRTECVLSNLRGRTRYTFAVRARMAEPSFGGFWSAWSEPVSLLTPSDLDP

ECL signal [1]: 930
ECL signal [2]: 786
Substance: Fab VH1-46_IGHD6-6*01_IGHJ1*01 S102A/S103P/S104F/H111F (APFF) & L6_IGKJ1*01 S92C

ECL signal [3]: 452 ECL signal
ECL signal [4]: 687 ECL signal
ECL signal [5]: 649 ECL signal
ECL signal [6]: 321 ECL signal
ECL signal [7]: 617 ECL signal
ECL signal [8]: 728 ECL signal
ECL signal [9]: 401 ECL signal
ECL signal [10]: 235 ECL signal
Substance: Fab VH1-46_IGHD6-6*01_IGHJ1*01 & L6_IGKJ1*01

ECL signal [11]: 418
Signal/Blank [12]: 1.7
ECL signal [13]: 418 and 587
Substance: Fab VH1-46_IGHD6-6*01_IGHJ1*01 S102A/S103P/S104F/H111F (APFF) & L6_IGKJ1*01 S92R

ECL signal [14]: 1730
ECL signal [15]: 929
ECL signal [16]: 1590
ECL signal [17]: 1400
ECL signal [18]: 1200
ECL signal [19]: 960
ECL signal [20]: 1520
ECL signal [21]: 1400
ECL signal [22]: 854
ECL signal [23]: 685
ECL signal [24]: 1250
ECL signal [25]: 816
ECL signal [26]: 750
ECL signal [27]: 651
ECL signal [28]: 1040
ECL signal [29]: 1050
ECL signal [30]: 358
ECL signal [31]: 464
ECL signal [32]: 873
ECL signal [33]: 742
ECL signal [34]: 548
ECL signal [35]: 547
ECL signal [36]: 831
ECL signal [37]: 854
ECL signal [38]: 542
ECL signal [39]: 558
ECL signal [40]: 1030
ECL signal [41]: 805
ECL signal [42]: 620
ECL signal [43]: 518
ECL signal [44]: 914
ECL signal [45]: 872
Substance: Fab VH5-51_IGHD5-18*01>3_IGHJ4*01 & V3-4_IGLJ1*01
